Laboratory results from publication PMC9760430, “A stapled chromogranin A-derived peptide homes in on tumors that express αvβ6 or αvβ8 integrins” (International Journal of Biological Sciences, 2023).
Ends that are not written are not given here.

Tests used:
[1] = biological target: recombinant human αvβ6 integrin (human) (UniProt P06756); assay: ELISA; competitive integrin binding assay: αvβ6-coated plates, isoDGR peptide labeled with peroxidase as probe for the integrin-binding site; Ki
[2] = biological target: recombinant human αvβ6 integrin (human) (UniProt P06756); assay: direct integrin binding assay (near-infrared fluorescence scan of plates); microtiter plates coated with αvβ6 or αvβ8; peptide-IRDye conjugates incubated 1 h, washed, bound fluorescence read with Odyssey CLx; EC50
[3] = biological target: recombinant human αvβ8 integrin (human) (UniProt P06756); assay: as above
[4] = biological target: recombinant murine αvβ6 integrin (murine) (UniProt P43406); assay: as above
Sequence of recombinant murine αvβ6 integrin (murine) (P43406 whole entry, chain 1 of 2): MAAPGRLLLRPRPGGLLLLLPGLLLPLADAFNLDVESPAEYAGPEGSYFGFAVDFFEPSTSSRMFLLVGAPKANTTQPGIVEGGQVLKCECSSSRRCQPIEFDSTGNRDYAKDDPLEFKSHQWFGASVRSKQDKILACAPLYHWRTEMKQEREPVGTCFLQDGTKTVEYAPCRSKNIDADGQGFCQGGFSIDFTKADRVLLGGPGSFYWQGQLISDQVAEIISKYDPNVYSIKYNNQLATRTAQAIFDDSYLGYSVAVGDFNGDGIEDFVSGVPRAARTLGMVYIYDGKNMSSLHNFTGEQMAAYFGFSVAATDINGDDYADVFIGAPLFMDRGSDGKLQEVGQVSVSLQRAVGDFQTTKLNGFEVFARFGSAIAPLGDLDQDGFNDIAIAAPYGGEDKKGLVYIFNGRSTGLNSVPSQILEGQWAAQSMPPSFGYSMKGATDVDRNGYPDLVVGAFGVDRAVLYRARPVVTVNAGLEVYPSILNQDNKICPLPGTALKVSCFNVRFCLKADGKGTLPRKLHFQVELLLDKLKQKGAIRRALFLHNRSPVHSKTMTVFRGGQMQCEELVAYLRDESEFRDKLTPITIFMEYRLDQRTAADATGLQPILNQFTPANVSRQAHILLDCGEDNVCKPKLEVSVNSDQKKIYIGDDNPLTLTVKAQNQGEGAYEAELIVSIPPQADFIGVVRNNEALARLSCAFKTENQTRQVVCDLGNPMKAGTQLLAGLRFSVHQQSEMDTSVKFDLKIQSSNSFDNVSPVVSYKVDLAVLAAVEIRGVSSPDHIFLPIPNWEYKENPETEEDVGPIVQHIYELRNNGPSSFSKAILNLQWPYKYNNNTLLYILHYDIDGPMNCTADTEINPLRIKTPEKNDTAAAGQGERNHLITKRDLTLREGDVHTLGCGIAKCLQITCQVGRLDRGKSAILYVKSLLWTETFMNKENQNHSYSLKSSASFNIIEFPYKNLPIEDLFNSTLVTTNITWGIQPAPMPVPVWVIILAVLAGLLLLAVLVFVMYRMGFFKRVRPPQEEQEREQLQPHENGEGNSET
Sequence of recombinant murine αvβ6 integrin (murine) (Q9Z0T9 whole entry, chain 2 of 2, further chain): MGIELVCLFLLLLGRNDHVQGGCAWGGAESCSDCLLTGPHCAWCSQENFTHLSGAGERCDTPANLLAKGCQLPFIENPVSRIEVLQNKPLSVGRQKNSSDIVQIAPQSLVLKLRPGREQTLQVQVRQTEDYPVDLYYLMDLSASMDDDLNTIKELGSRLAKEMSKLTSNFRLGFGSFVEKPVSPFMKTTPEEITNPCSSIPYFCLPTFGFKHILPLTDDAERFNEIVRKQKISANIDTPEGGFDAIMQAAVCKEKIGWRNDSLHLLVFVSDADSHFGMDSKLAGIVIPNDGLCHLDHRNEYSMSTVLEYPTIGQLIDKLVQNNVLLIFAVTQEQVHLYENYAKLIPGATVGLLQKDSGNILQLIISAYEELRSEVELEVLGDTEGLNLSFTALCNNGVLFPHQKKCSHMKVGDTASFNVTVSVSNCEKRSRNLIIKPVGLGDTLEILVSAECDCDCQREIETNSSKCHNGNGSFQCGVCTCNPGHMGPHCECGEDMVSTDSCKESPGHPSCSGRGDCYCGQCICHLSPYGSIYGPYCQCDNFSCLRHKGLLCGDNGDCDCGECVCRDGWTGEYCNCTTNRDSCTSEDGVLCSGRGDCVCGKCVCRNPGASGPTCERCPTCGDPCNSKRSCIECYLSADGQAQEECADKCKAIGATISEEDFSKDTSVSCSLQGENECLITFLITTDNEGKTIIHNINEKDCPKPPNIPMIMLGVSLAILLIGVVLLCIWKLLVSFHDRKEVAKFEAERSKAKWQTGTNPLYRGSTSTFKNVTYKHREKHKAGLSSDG

[5] = biological target: recombinant murine αvβ8 integrin (murine) (UniProt P43406); assay: as above
Sequence of recombinant murine αvβ8 integrin (murine) (P43406 whole entry, chain 1 of 2): as the sequence (P43406 whole entry, chain 1 of 2) above
Sequence of recombinant murine αvβ8 integrin (murine) (Q0VBD0 whole entry, chain 2 of 2, further chain): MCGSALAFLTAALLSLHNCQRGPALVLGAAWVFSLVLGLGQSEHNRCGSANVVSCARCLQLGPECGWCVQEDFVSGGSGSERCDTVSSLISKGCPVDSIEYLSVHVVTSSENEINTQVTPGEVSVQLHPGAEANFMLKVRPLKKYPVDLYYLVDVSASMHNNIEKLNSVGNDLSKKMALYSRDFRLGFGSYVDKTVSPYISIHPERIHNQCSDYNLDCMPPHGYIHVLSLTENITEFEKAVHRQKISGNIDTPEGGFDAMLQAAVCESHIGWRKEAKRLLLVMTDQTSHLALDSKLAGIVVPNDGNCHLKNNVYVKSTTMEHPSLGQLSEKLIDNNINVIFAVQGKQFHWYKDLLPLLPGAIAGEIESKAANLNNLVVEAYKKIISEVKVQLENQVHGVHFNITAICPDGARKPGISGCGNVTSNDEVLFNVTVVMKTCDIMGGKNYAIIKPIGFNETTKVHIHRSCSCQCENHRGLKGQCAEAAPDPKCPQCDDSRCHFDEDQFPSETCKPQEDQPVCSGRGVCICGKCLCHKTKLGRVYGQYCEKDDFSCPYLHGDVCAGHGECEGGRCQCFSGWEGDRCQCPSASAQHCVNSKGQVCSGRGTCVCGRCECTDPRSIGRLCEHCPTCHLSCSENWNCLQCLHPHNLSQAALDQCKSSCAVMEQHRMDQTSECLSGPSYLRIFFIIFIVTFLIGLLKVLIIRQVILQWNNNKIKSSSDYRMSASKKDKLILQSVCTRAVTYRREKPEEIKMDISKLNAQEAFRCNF

Row | Binder | Ki [1] [nM] | EC50 [2] [nM] | EC50 [3] [nM] | EC50 [4] [nM] | EC50 [5] [nM]
1 | C(maleimide‑NOTA)FETLRGEERILSILRHQNLLKELQD-NH2 [2a-NOTA conjugate] | > 1000 |  |  |  | 
2 | C(maleimide‑IRDye 800CW)FETLRGEERILSILRHQNLLKELQD-NH2 [2a-IRDye conjugate] |  | > 100 | > 100 | > 100 | > 100
